Laboratory results as given in patent publication US20220204577A1, “Synthetic Peptides With Affinity for the Interleukin-10 Receptor, Pharmaceutical Composition and Use Thereof as Immunomodulators for Treating Autoimmune, Inflammatory or Allergic Diseases” (Universidade Federal de Uberlândia, priority 2019, published 2022).

Tested on: mouse basophilic leukemia cells transfected with the human FcεRI IgE receptor (hRBL)
Experiment: IgE-mediated release of β-hexosaminidase (basophil degranulation) in hRBL cells
Assay type: cell-based
Conditions: rIL10 treatment; versus cells treated with Bet v1 alone; serum from seven birch pollen-allergic donors
Method: The effect of Pep 1 on IgE-mediated release was studied using mouse basophilic leukemia cells transfected with the human FcεRI IgE receptor (hRBL). The hRBL cells were sensitized with serum from seven patients allergic to birch pollen. The cells were stimulated with the antigen and its interaction with immobilized IgEs resulting in the release of β-hexosaminidase.
When cells were treated with a composition containing Pep 1 to 1 μM (FIG. 10A) or rIL10 (FIG. 10B), the amount of Bet v 1 required to induce the same amount of degranulation was higher than for cells treated with Bet v1 alone (P<0.05). Amount of rBet v 1 (ng/mL) required to induce half the release of β-hexosaminidase using serum from seven birch pollen-allergic donors after treatment with Pep 1 (A) (P<0.05) and rIL10 (B) * P<0.05.

B1: rIL10: recombinant IL-10, used as control (protein, UniProt P22301 19-178, looked up)
Interleukin-10: SPGQGTQSENSCTHFPGNLPNMLRDLRDAFSRVKTFFQMKDQLDNLLLKESLLEDFKGYLGCQALSEMIQFYLEEVMPQAENQDPDIKAHVNSLGENLKTLRLRLRRCHRFLPCENKSKAVEQVKNAFNKLQEKGIYKAMSEFDIFINYIEAYMTMKIRN
  amount of Bet v 1 required to induce the same amount of degranulation: higher
